Data: article PMC8484547, “The NAM/ATAF1/2/CUC2 transcription factor PpNAC.A59 enhances PpERF.A16 expression to promote ethylene biosynthesis during peach fruit ripening”

B1: PpendoPGM promoter probe(s) (dsDNA)
DNA 1: CGTAAGGTCATTACGGCGCCGTTTCCCTTTTTAATTGGCG
DNA 2: CGCCAATTAAAAAGGGAAACGGCGCCGTAATGACCTTACG
B2: PpACO1 promoter probe(s) (dsDNA)
DNA 1: AGTCAAAAGCTTTCGGCGTCAAGATTCCATTG
DNA 2: CAATGGAATCTTGACGCCGAAAGCTTTTGACT
B3: PpACS1 promoter probe (dsDNA)
DNA 1: ACACCATCTCAACCATTGCCCCCACAATTGATAGCTTGC
DNA 2: GCAAGCTATCAATTGTGGGGGCAATGGTTGAGATGGTGT

Target: PpERF.A16::HIS (Prunus persica? (peach), UniProt A0A251PUJ2 1-382)
Sequence (A0A251PUJ2 entry or part of it): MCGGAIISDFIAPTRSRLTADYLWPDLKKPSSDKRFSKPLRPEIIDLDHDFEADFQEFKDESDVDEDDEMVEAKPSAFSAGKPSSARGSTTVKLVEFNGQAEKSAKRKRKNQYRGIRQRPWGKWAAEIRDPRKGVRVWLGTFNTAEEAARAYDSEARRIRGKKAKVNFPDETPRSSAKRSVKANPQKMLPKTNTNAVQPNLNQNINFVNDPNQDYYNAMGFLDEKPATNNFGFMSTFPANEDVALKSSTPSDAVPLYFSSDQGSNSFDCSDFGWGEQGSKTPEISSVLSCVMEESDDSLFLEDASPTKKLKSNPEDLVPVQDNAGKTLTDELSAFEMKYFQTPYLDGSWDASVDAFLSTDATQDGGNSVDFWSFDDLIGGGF
Test: BLI; response rises with protein concentration; BLI: PBS (1.4 mM KH2PO4, 2.7 mM KCl, 4.3 mM Na2HPO4, 137 mM NaCl, 0.02% Tween-20, pH 7.2), temperature not stated; EMSA: 5 mM MgCl2, 2.5% glycerol, 0.05% NP-40, 1 mg (so in the source) poly(dI-dC), 200 nM probe, 1 ug protein in 20 ul, 20 min, room temperature
Settings: protein: recombinant; tags: HIS, trigger factor fusion (pCold-TF); label: biotin

Binding result, binds:
B1
B2
B3
